Columns and labels:
[1] = Monoterpene synthase assay and product identification with extracts of E. coli expressing Grand fir cDNA clones (Example 3); assay type: biochemical
Experimental: For expression, bacterial strains E. coil XLOLR/pAG3.18, E. coil XLOLR/pAG3.48, E. coli XL1-Blue/pGAG2.2, E. coli XL1-Blue/pGAG3.18, and E. coil BL21(DE3)/pSBAG10were grown to A600=0.5 at 37° C. in 5 ml of LB medium (Sambrock, J., Fritsch, E. F., and Maniatis, T. (1989) Molecular Cloning: A Laboratory Manual, 2d Ed., Cold Spring Harbor Laboratory, Cold Spring Harbor, N.Y.) supplemented with 100 μg ampicillin/ml or 30 μg kanamycin/ml as determined by the vector. Cultures were then induced by addition of 1 mM isopropyl-1-thio-β-D-galactopyranoside and grown for another 12 h at 20° C. Cells were harvested by centrifugation (2000×g, 10 min) and resuspended in either 1 ml monoterpene synthase assay buffer [50 mM Tris/HCl (pH 7.5), 500 mM KCl, 1 mM MnCl2, 5 mM dithiothreitol, 0.05% (w/v) NaHSO3 and 10% (v/v) glycerol], 1 ml sesquiterpene synthase assay buffer [10 mM dibasic potassium phosphate, 1.8 mM monobasic potassium phosphate (pH 7.3), 140 mM NaCl, 10 mM MgCl2, 5 mM dithiothreitol, 0.05% (w/v) NaHSO3 and 10% (v/v) glycerol], or 1 ml diterpene synthase assay buffer [30 mM Hepes (N-2-hydroxyethylpiperazine-N-′2-ethanesulfonic acid, pH 7.2), 7.5 mM MgCl2, 5 mM dithiothreitol, 10 µM MnCl2, 0.05% (w/v) NaHSO3 and 10% (v/v) glycerol].
Cells were disrupted by sonication (Braun-Sonic 2000 with microprobe at maximum power for 15 seconds at 0-4° C.), the homogenates were cleared by centrifugation (18,000×g, 10 min), and 1 ml of the resulting supernatant was assayed for monoterpene synthase activity with 2.5 μM of [1-^3H]geranyl diphosphate, for sesquiterpene synthase activity with 3.5 μM [1-^3H]farnesyl diphosphate, or for diterpene synthase activity with 5 μM [1- ^3H]geranylgeranyl diphosphate following standard protocols (Croteau, R., and Cane, D. E. (1985) Methods Enzymol. 110:383-405; LaFever, R. E., Stofer Vogel, B., and Croteau, R. (1994) Arch. Biochem. Biophys. 313:139-149; Dehal, S. S., and Croteau, R. (1988) Arch. Biochem. Biophys. 261:346-356). In the case of the monoterpene synthase and sesquiterpene synthase assays, the incubation mixture was overlaid with 1 ml pentane to trap volatile products. In all cases, after incubation at 31° C. for 2 h, the reaction mixture was extracted with pentane (3×1 ml) and the combined extract was passed through a 1.5 ml column of anhydrous MgSO4 and silica gel (Mallinckrodt 60 Å) to provide the terpene hydrocarbon fraction free of oxygenated metabolites. The columns were subsequently eluted with 3×1 ml of ether to collect any oxygenated products, and an aliquot of each fraction was taken for liquid scintillation counting to determine conversion rate.
Product Identification—To obtain sufficient product for analysis by radio-GLC (gas liquid chromatography), chiral capillary GLC and GLC-MS (mass spectrum/spectrometry), preparative-scale enzyme incubations were carried out. Thus, the enzyme was prepared from 50 ml of cultured bacterial cells by extraction with 3 ml of assay buffer as above, and the extracts were incubated with excess substrate overnight at 31° C. The hydrocarbon fraction was isolated by elution through MgSO4-silica gel as before, and the pentane eluate was concentrated for evaluation by capillary radio-GLC as described (Croteau, R., and Satterwhite, D. M. (1990) J. Chromatogr. 500:349-354), by chiral column capillary GLC (Lewinsohn, E., Savage, T. J., Gijzen, M., and Croteau, R. (1993) Phytochem. Anal. 4:220-225), and by combined GLC-MS [Hewlett-Packard 6890 GC-MSD with cool (40° C.) on-column injection, detection via electron impact ionization (70 eV), He carrier at 0.7 psi., column:0.25 mm i.d.×30 m fused silica with 0.25 μm film of 5MS (Hewlett-Packard) programmed from 35° C. (5 min hold) to 230° C. at 5° C./min].

[2] = Terpene synthase assay and GC-MS / chiral GC product identification of recombinant enzymes expressed from pSBET in E. coli BL21(DE3) (Example 11); assay type: biochemical; settings: extracts of induced cells
Experimental: For functional expression, bacterial strains E. coli BL21(DE3)/pSAG2(M), E. coli BL21(DE3)/pSAG2(R), E. coli BL21(DE3)/pSAG3(R), E. coli BL21(DE3)/pSAG6(M), E. coli BL21(DE3/pSAG6(R), E. coli BL21(DE3)/pSAG8(M), E. coli BL21(DE3)/pSAG9(M), E. coli BL21(DE3)/pSAG11(M) and E. coli BL21(DE3)/SAG11(R) were grown to A600=0.5 at 37° C. in 5 ml of Luria-Bertani medium (Sambrook, J., Fritsch, E. F., and Maniatis, T. (1989) Molecular Cloning: A Laboratory Manual, 2nd Ed., pp. 7.20-7.43, Cold Spring Harbor, N.Y.) supplemented with 30 μg kanamycin/ml. Cultures were then induced by addition of 1 mM isopropyl-1-thio-β-D-galactopyranoside and grown for another 12 h at 20° C. Cells were harvested by centrifugation and disrupted by sonication followed by centrifugation, and the resulting soluble enzyme preparations were assayed for monoterpene, sesquiterpene and diterpene synthase activity using the appropriate radiolabeled substrate as described previously (Bohlmann, J., Steele, C. L., and Croteau, R. (1997) J. Biol. Chem. 272, 21784-21792). This assay involves the isolation and separation of terpene olefins and oxygenated terpenes by column chromatography on silica, followed by scintillation counting to determine conversion rate. GC-MS analysis is employed for product identification, by comparison of retention times and mass spectra to those of authentic standards (Bohlmann, J., Steele, C. L., and Croteau, R. (1997) J. Biol Chem. 272, 21784-21792); assignment of absolute configuration is based upon chiral column capillary GC and matching of retention time to that of the corresponding enantiomer (Lewinsohn, E., Savage, T. J., Gijzen, M., and Croteau, R. (1993) Phytochem. Anal. 4, 220-225). To insure production of sufficient material for identification, the standard assay (Bohlmann, J., Steele, C. L., and Croteau, R. (1997) J. Biol. Chem. 272, 21784-21792) was scaled up by a factor of 20.
Initially, the four pSBET plasmids pSAG6(M), pSAG8(M), pSAG9(M) and pSAG11(M), containing the full-length cDNA inserts of ag6 (SEQ ID NO:64), ag8 (SEQ ID NO:66), ag9 (SEQ ID NO:77) and ag11 (SEQ ID NO:68), respectively, were expressed in E. coli BL21(DE3). Extracts of the induced, transformed bacterial cells were assayed for monoterpene, sesquiterpene and diterpene synthase activity using the corresponding labeled C10, C15 and C20 prenyl diphosphate substrates (Bohlmann, J., Steele, C. L., and Croteau, R. (1997) J. Biol. Chem. 272, 21784-21792). […] Since it is known that the relatively large amino-terminal transit peptide of plant terpene synthases can impair expression of the functional preprotein in E. coli and promote the formation of intractable inclusion bodies (Williams, D. C., McGarvey, D. J., Katahira, E. J., and Croteau, R. (1998) Biochemisiry 37, 12213-12220), the“pseudomature” forms of ag6 (SEQ ID NO:64) and ag11 (SEQ ID NO:68) were prepared by truncation of the cDNAs to insert a starting methionine immediately upstream of their tandem arginine elements (R59R 60 for ag6 (SEQ ID NO:64), R^71R^72 for ag11 (SEQ ID NO:68)) for expression in E. coli BL21(DE3)/pSAG6(R) and E. coli BL21(DE3)/pSAG11(R). Similar truncations of previously characterized ag2.2 (SEQ ID NO:1) (myrcene synthase, R^64R^65) and ag3.18 (SEQ ID NO:3) ((−)-pinene synthase, (SEQ ID NO:5) R^64R^65) (Bohlmann, J., Steele, C. L., and Croteau, R. (1997) J. Biol. Chem. 272, 21784-21792) were prepared for expression from pSBET as controls for the possible alteration of product yield and distribution resulting from truncation.
Monoterpenes generated at preparative scale from geranyl diphosphate by the recombinant enzymes encoded by ag6 (SEQ ID NO:64), ag8 (SEQ ID NO:66), ag9 (SEQ ID NO:77) and ag11 (SEQ ID NO:68) were analyzed by GC-MS and chiral phase (β-cyclodextrin) capillary GC, and identified by comparison of retention times and mass spectra to authentic standards (FIGS. 6-9). […] The enzyme encoded by ag6 (SEQ ID NO:65) is therefore designated as (−)-1S,4R-camphene synthase. […]

B1: AG2.2: recombinant myrcene synthase from Grand fir encoded by cDNA clone AG2.2 (SEQ ID NO:1; protein SEQ ID NO:2) (protein, listed as Abies grandis)
chain: MALVSISPLASKSCLRKSLISSIHEHKPPYRTIPNLGMRRRGKSVTPSMSISLATAAPDDGVQRRIGDYHSNIWDDDFIQSLSTPYGEPSYQERAERLIVEVKKIFNSMYLDDGRLMSSFNDLMQRLWIVDSVERLGIARHFKNEITSALDYVFRYWEENGIGCGRDSIVTDLNSTALGFRTLRLHGYTVSPEVLKAFQDQNGQFVCSPGQTEGEIRSVLNLYRASLIAFPGEKVMEEAEIFSTRYLKEALQKIPVSALSQEIKFVMEYGWHTNLPRLEARNYIDTLEKDTSAWLNKNAGKKLLELAKLEFNIFNSLQQKELQYLLRWWKESDLPKLTFARHRHVEFYTLASCIAIDPKHSAFRLGFAKMCHLVTVLDDIYDTFGTIDELELFTSAIKRWNSSEIEHLPEYMKCVYMVVFETVNELTREAEKTQGRNTLNYVRKAWEAYFDSYMEEAKWISNGYLPMFEEYHENGKVSSAYRVATLQPILTLNAWLPDYILKGIDFPSRFNDLASSFLRLRGDTRCYKADRDRGEEASCISCYMKDNPGSTEEDALNHINAMVNDIIKELNWELLRSNDNIPMLAKKHAFDITRALHHLYIYRDGFSVANKETKKLVMETLLESMLF
[1]; cell-free extract of induced E. coli, tritium labeled substrates
  prenyl diphosphate substrate utilized (geranyl, farnesyl, geranylgeranyl diphosphate tested): only with geranyl diphosphate as substrate
[1]; radio-GLC, GLC-MS, chiral GLC
  monoterpene products formed from geranyl diphosphate: the only product was shown to be myrcene
[2]
  terpene synthase activity on expression from pSBET in E. coli BL21(DE3): high level expression of activity
